What was measured:
[1] = biological target: HIV-1 Env of strain 6545.v4.c1 (HIV-1)
[2] = biological target: HIV-1 Env of strain X1193_c1 (HIV-1)
[3] = biological target: HIV-1 Env of strain CNE17 (HIV-1)
[4] = biological target: HIV-1 Env of strain 1056_10_TA11_1826 (HIV-1)
[5] = biological target: HIV-1 Env of strain Ce0682_E4 (HIV-1)
[6] = biological target: HIV-1 Env of strain ZM197M.PB7 (HIV-1)
[7] = biological target: HIV-1 Env of strain CNE58 (HIV-1)
[8] = biological target: HIV-1 Env of strain PVO.4 (HIV-1)
[9] = biological target: HIV-1 Env of strain T251-18 (HIV-1)
[10] = biological target: HIV-1 Env of strain CNE30 (HIV-1)
[11] = biological target: HIV-1 Env of strain 231966.c02 (HIV-1)
[12] = biological target: HIV-1 Env of strain CAAN5342.A2 (HIV-1)
[13] = biological target: HIV-1 Env of strain ZM109F.PB4 (HIV-1)
[14] = biological target: HIV-1 Env of strain X2131_C1_B5 (HIV-1)
[15] = biological target: HIV-1 Env of strain X1254_c3 (HIV-1)
[16] = biological target: HIV-1 Env of strain Du156.12 (HIV-1)
[17] = biological target: HIV-1 Env of strain C1080.c03 (HIV-1)
[18] = biological target: HIV-1 Env of strain WITO4160.33 (HIV-1)
[19] = biological target: HIV-1 Env of strain CNE53 (HIV-1)
[20] = biological target: HIV-1 Env of strain Q842.d12 (HIV-1)
[21] = biological target: HIV-1 Env of strain 3817.v2.c59 (HIV-1)
[22] = biological target: HIV-1 Env of strain ZM214M.PL15 (HIV-1)
[23] = biological target: HIV-1 Env of strain C2101.c01 (HIV-1)
[24] = biological target: HIV-1 Env of strain Ce2010_F5 (HIV-1)
[25] = biological target: HIV-1 Env of strain TRJO4551.58 (HIV-1)

NIH45-46 IgG (wild type) (antibody)
In vitro neutralization IC80 [1]: > 50 µg/mL
In vitro neutralization IC80 [2]: 0.064 µg/mL
In vitro neutralization IC80 [3]: 0.734 µg/mL
In vitro neutralization IC80 [4]: 0.447 µg/mL
In vitro neutralization IC80 [5]: 0.155 µg/mL
In vitro neutralization IC80 [6]: 0.55 µg/mL
In vitro neutralization IC80 [7]: 2.08 µg/mL
In vitro neutralization IC80 [8]: 0.41 µg/mL
In vitro neutralization IC80 [9]: 3.68 µg/mL
In vitro neutralization IC80 [10]: 1.07 µg/mL
In vitro neutralization IC80 [11]: 9.64 µg/mL
In vitro neutralization IC80 [12]: 0.4 µg/mL
In vitro neutralization IC80 [13]: 0.437 µg/mL
In vitro neutralization IC80 [14]: 0.88 µg/mL
In vitro neutralization IC80 [15]: 0.107 µg/mL
In vitro neutralization IC80 [16]: 0.054 µg/mL
In vitro neutralization IC80 [17]: 11.6 µg/mL
In vitro neutralization IC80 [18]: 0.26 µg/mL
In vitro neutralization IC80 [19]: 0.039 µg/mL
In vitro neutralization IC80 [20]: 0.073 µg/mL
In vitro neutralization IC80 [21]: > 50 µg/mL
In vitro neutralization IC80 [22]: 0.59 µg/mL
In vitro neutralization IC80 [23]: 31.4 µg/mL
In vitro neutralization IC80 [24]: 0.357 µg/mL
In vitro neutralization IC80 [25]: 0.13 µg/mL
